# According to patent publication US20090285798A1:
# Biological target: gp120
# Assay: fluorescence anisotropy, Kd values of Table I, told of the isolates together
substance,measurement,value
Alexa labeled mini-protein CD4M47 (peptide),fold gain of affinity over CD4M48,3 fold
